Data taken from patent publication US20210079056A1 (Bayer, published 2021).

Key:
rat ANP receptor (NPR-A) = target: T1, rat ANP receptor (NPR-A) (rat, UniProt P18910 29-1057); experiment: cell-based or functional assay
T1 sequence (looked up): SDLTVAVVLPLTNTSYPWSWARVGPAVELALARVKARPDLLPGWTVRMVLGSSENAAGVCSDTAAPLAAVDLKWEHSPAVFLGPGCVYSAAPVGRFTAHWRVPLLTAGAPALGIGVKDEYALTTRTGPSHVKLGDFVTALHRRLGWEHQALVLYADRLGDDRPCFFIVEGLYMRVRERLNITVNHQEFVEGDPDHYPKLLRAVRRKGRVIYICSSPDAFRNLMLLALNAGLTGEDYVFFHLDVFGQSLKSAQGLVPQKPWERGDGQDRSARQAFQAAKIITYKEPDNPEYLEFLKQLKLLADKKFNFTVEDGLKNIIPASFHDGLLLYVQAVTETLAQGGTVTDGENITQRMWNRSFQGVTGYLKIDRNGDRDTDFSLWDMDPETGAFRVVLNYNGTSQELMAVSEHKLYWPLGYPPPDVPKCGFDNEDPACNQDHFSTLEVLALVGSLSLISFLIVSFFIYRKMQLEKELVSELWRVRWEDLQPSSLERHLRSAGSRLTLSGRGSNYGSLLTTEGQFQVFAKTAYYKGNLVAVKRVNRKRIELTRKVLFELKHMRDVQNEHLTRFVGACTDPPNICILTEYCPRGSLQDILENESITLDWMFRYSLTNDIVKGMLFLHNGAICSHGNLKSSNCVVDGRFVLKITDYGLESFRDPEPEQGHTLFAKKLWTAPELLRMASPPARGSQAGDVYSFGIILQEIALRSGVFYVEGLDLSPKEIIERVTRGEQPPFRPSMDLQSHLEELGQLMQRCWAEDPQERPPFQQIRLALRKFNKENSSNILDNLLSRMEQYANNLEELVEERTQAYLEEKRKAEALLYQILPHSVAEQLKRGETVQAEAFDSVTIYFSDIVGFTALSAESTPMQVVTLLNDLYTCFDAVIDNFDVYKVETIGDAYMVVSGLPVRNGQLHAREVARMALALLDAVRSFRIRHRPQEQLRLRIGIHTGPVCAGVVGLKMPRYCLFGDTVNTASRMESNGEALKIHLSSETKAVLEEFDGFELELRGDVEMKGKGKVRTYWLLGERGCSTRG

human NPRA = target: T2, human NPRA (human, UniProt P16066 33-1061); experiment: cell-based or functional assay
T2 sequence (looked up): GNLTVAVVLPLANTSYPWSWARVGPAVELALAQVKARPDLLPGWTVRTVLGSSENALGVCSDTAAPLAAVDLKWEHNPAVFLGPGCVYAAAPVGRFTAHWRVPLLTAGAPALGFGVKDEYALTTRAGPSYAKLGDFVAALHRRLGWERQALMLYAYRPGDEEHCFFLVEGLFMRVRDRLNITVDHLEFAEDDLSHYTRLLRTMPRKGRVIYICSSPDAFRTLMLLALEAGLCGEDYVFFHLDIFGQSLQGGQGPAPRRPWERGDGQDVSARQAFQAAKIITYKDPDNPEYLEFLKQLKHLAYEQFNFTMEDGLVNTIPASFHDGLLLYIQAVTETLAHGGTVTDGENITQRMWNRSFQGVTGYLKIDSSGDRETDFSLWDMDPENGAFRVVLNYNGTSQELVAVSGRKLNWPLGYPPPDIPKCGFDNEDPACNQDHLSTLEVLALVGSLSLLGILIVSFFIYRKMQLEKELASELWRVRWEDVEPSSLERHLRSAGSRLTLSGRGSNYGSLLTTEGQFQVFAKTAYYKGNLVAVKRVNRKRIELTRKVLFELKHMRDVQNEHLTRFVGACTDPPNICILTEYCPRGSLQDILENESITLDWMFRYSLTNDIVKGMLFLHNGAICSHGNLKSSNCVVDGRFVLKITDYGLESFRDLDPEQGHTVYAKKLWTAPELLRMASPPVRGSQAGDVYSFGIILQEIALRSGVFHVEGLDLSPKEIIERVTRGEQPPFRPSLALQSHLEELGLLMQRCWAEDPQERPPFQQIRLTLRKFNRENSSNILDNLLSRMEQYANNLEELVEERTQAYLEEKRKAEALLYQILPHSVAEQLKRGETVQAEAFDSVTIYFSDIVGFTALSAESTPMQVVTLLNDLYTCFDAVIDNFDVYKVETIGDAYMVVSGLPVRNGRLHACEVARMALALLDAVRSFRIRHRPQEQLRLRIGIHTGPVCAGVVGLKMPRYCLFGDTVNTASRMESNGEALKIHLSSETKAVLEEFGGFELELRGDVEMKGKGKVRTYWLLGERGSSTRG

EC50, fluorescence of cGMP reporter cells (rat ANP receptor (NPR-A)): 17 nM
log EC50 ics, cGMP assay, stable hNPRA-CHO k1 cells (human NPRA): -8.8 log M
log EC50 pcs, cGMP assay, stable hNPRA-CHO k1 cells, average (human NPRA): -9.2 log M
log EC50 pcs, cGMP assay, transient hNPRA-HEK293 cells, average (human NPRA): -9 log M
B1: TPP-5661 (antibody)
heavy: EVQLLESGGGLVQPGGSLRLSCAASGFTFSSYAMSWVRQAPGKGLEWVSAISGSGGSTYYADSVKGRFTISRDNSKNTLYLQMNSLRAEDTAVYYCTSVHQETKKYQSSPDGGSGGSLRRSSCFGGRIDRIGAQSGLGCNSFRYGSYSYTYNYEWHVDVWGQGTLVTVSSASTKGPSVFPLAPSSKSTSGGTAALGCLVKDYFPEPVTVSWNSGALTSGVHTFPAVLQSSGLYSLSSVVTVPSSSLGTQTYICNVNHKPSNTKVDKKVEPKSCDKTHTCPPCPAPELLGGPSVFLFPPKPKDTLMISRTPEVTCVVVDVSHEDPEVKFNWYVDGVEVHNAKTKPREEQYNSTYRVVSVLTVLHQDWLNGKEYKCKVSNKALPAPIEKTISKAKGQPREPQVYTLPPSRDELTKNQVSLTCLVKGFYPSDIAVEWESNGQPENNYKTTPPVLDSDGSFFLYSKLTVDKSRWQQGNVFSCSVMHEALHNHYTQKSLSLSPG
light: QSVLTQPPSVSGAPGQRVTISCTGSSSNIGAGYDVHWYQQLPGTAPKLLIYGNSNRPSGVPDRFSGSKSGTSASLAITGLQAEDEADYYCQSYDSSLSGVVFGGGTKLTVLGQPKAAPSVTLFPPSSEELQANKATLVCLISDFYPGAVTVAWKADSSPVKAGVETTTPSKQSNNKYAASSYLSLTPEQWKSHRSYSCQVTHEGSTVEKTVAPTECS
